Results taken from publication doi:10.1101/180315 (bioRxiv, 2018).

B2: human WIPI4 (natural protein, UniProt Q9Y484 1-360, looked up)
chain: MTQQPLRGVTSLRFNQDQSCFCCAMETGVRIYNVEPLMEKGHLDHEQVGSMGLVEMLHRSNLLALVGGGSSPKFSEISVLIWDDAREGKDSKEKLVLEFTFTKPVLSVRMRHDKIVIVLKNRIYVYSFPDNPRKLFEFDTRDNPKGLCDLCPSLEKQLLVFPGHKCGSLQLVDLASTKPGTSSAPFTINAHQSDIACVSLNQPGTVVASASQKGTLIRLFDTQSKEKLVELRRGTDPATLYCINFSHDSSFLCASSDKGTVHIFALKDTRLNRRSALARVGKVGPMIGQYVDSQWSLASFTVPAESACICAFGRNTSKNVNSVIAICVDGTFHKYVFTPDGNCNREAFDVYLDICDDDDF

Experiments:
S. cerevisiae ATG2 = S. cerevisiae ATG2 (S. cerevisiae, UniProt P53855 1-1592); experiment: negative-stain EM
human ATG2A = human ATG2A (human, UniProt Q2TAZ0 1-1938); experiment: negative-stain EM
human WIPI4 = target: B2; experiment: SEC

Chain of S. cerevisiae ATG2 (P53855 whole entry): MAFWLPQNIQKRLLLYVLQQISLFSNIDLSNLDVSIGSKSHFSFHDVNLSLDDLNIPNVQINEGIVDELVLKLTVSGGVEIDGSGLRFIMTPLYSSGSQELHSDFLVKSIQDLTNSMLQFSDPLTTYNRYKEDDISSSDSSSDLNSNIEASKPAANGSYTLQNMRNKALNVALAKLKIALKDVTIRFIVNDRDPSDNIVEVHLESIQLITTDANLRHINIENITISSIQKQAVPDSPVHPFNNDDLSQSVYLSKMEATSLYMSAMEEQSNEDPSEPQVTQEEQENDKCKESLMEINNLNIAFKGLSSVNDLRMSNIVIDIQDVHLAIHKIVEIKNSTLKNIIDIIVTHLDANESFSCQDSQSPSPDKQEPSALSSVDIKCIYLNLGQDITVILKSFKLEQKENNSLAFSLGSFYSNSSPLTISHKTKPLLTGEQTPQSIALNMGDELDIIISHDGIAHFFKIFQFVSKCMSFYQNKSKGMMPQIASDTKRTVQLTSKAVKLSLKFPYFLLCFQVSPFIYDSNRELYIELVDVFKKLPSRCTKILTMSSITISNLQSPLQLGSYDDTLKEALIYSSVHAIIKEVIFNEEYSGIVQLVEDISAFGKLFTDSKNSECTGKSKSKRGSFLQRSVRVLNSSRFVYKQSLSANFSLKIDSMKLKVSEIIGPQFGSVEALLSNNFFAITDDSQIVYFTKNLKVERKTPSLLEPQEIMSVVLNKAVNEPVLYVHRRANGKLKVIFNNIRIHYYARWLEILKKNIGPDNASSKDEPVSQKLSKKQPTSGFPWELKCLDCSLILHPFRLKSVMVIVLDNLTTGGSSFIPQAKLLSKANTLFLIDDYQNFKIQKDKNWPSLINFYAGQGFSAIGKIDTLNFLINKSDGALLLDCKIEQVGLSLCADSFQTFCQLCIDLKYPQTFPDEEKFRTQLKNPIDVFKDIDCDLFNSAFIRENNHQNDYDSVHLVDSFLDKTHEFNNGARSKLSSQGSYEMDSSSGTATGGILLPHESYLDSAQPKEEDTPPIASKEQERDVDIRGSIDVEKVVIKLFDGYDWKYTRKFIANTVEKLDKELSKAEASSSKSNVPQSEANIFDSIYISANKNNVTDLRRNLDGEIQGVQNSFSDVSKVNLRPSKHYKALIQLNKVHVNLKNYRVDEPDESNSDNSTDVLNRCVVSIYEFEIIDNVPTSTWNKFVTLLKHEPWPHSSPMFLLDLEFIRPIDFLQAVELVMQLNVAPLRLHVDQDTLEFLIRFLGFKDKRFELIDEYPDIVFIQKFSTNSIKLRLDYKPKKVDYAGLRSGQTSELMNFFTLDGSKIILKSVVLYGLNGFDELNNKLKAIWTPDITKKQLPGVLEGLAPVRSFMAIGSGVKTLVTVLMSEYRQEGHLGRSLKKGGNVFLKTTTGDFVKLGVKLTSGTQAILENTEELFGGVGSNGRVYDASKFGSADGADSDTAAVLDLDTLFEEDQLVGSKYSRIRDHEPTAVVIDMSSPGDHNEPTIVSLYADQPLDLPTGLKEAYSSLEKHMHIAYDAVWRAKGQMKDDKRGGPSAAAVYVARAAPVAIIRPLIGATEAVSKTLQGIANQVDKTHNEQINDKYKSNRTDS
Chain of human ATG2A (Q2TAZ0 whole entry): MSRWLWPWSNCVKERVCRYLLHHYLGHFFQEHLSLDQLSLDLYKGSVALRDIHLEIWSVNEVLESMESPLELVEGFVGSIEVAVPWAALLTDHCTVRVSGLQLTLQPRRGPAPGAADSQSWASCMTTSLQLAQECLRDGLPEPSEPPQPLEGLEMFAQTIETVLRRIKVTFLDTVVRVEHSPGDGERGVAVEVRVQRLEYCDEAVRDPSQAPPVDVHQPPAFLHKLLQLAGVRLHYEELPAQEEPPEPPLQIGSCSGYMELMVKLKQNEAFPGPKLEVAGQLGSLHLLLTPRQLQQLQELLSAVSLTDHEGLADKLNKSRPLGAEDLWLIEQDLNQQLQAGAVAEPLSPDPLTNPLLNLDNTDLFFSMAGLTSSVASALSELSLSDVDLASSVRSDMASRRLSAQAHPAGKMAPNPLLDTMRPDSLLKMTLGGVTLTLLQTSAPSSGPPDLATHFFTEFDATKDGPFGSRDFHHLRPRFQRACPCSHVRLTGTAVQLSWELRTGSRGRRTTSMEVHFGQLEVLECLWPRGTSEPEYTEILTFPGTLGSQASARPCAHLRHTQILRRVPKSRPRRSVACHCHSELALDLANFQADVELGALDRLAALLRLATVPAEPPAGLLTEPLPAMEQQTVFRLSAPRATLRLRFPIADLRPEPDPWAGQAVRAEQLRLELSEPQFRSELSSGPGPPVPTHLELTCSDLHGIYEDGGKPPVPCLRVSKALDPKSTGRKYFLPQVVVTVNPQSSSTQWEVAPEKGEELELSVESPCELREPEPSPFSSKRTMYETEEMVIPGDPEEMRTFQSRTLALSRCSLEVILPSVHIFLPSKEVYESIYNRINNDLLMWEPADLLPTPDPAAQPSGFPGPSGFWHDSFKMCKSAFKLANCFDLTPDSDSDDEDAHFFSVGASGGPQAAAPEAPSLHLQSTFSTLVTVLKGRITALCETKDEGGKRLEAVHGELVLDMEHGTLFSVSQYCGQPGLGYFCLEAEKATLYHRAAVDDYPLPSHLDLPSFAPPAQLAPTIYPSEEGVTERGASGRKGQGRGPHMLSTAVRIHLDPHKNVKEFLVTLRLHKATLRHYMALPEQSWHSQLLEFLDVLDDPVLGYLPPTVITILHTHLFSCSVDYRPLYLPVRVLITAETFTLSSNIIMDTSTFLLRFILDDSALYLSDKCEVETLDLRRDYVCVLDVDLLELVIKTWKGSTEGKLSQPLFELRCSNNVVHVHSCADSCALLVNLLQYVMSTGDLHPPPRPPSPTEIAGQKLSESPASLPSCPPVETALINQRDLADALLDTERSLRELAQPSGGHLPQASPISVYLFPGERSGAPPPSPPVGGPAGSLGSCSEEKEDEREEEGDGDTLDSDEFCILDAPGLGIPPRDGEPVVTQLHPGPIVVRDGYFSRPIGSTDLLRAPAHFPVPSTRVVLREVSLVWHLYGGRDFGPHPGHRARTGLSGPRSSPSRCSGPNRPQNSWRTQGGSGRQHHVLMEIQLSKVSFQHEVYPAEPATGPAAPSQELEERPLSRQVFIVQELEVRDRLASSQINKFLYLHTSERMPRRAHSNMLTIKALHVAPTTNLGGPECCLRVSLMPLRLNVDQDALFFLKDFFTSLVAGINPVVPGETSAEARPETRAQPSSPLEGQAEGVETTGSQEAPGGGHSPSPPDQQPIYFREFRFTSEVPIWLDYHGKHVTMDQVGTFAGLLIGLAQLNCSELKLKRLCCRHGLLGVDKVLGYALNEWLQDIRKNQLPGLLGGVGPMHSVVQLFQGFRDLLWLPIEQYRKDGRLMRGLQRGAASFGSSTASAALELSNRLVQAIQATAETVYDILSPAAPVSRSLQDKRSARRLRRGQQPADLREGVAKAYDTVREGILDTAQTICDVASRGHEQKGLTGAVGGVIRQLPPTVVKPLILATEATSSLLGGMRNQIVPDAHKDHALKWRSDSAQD

B1: ATG18 (natural protein, S. cerevisiae, UniProt P43601 1-500, looked up)
chain: MSDSSPTINFINFNQTGTCISLGTSKGFKIFNCEPFGKFYSEDSGGYAIVEMLFSTSLLALVGIGDQPALSPRRLRIINTKKHSIICEVTFPTSILSVKMNKSRLVVLLQEQIYIYDINTMRLLHTIETNPNPRGLMAMSPSVANSYLVYPSPPKVINSEIKAHATTNNITLSVGGNTETSFKRDQQDAGHSDISDLDQYSSFTKRDDADPTSSNGGNSSIIKNGDVIVFNLETLQPTMVIEAHKGEIAAMAISFDGTLMATASDKGTIIRVFDIETGDKIYQFRRGTYATRIYSISFSEDSQYLAVTGSSKTVHIFKLGHSMSNNKLDSDDSNMEEAAADDSSLDTTSIDALSDEENPTRLAREPYVDASRKTMGRMIRYSSQKLSRRAARTLGQIFPIKVTSLLESSRHFASLKLPVETNSHVMTISSIGSPIDIDTSEYPELFETGNSASTESYHEPVMKMVPIRVVSSDGYLYNFVMDPERGGDCLILSQYSILMD
B1: binds (S. cerevisiae ATG2).

With B2 the “stoichiometry N” value (human ATG2A) was 1.

B3: 6xHis-GB1-ATG2A (1358-1404) (domain or fragment, human, UniProt Q2TAZ0 1358-1404, looked up)
chain: DSDEFCILDAPGLGIPPRDGEPVVTQLHPGPIVVRDGYFSRPIGSTD
B3: binds (human WIPI4).
